Results reported in US20220144953A1 (published 2022).

Target: Parent
Assay: antigen titration binding curve (Norm. RFU)

B1: Mouse (receptor)
chain: FKVTTPYSLYVCPEGQNATLTCRILGPVSKGHDVTIYKTWYLSSRGEVQMCKEHRPIRNFTLQHLQHHGSHLKANASHDQPQKHGLELASDHHGNFSITLRNVTPRDSGLYCCLVIELKNHHPEQRFYGSMELQVQAGKGSGSTCMASNEQDSDSITAA
Kd: 165 nM
